Measurements: article PMC2766932 (Biochemistry, 2009)
Where a chain is given by its changes, count along the chain named. Names may count otherwise. Values belong to the molecule of their own block, whether it stands above or below them.

Legend:
Assay in all cases: pull-down
MBP-3 D260A = target: MBP-3 D260A
MBP-3 S246D = target: MBP-3 S246D
MBP-3 S279A = target: MBP-3 S279A
MBP-3 S287A = target: MBP-3 S287A
MBP-3 S287D = target: MBP-3 S287D
MBP-3 Q243A = target: T1, MBP-3 Q243A
T1 chain: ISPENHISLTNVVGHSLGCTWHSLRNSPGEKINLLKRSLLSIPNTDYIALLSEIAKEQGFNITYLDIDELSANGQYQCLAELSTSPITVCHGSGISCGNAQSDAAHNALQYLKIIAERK

MBP-3 D262A = target: T2, MBP-3 D262A
T2 chain: T1 chain with A49Q, D68A

PKR bound, percent of wt MBP-3 (MBP-3 D260A): 63% | PKR bound, percent of wt MBP-3 (MBP-3 S246D): 100% | PKR bound, percent of wt MBP-3 (MBP-3 S279A): 23% | PKR bound, percent of wt MBP-3 (MBP-3 S287A): 59% | PKR bound, percent of wt MBP-3 (MBP-3 S287D): 95%
Molecule: PKR (K296R)-FLAG (from UniProt P19525 1-551) (enzyme)

PKR bound, percent of wt MBP-3 (MBP-3 Q243A): 9% | PKR bound, percent of wt MBP-3 (MBP-3 D262A): 2%
B1: PKR (K296R)-FLAG (enzyme, UniProt P19525 1-551, looked up)
chain: MAGDLSAGFFMEELNTYRQKQGVVLKYQELPNSGPPHDRRFTFQVIIDGREFPEGEGRSKKEAKNAAAKLAVEILNKEKKAVSPLLLTTTNSSEGLSMGNYIGLINRIAQKKRLTVNYEQCASGVHGPEGFHYKCKMGQKEYSIGTGSTKQEAKQLAAKLAYLQILSEETSVKSDYLSSGSFATTCESQSNSLVTSTLASESSSEGDFSADTSEINSNSDSLNSSSLLMNGLRNNQRKAKRSLAPRFDLPDMKETKYTVDKRFGMDFKEIELIGSGGFGQVFKAKHRIDGKTYVIRRVKYNNEKAEREVKALAKLDHVNIVHYNGCWDGFDYDPETSDDSLESSDYDPENSKNSSRSKTKCLFIQMEFCDKGTLEQWIEKRRGEKLDKVLALELFEQITKGVDYIHSKKLIHRDLKPSNIFLVDTKQVKIGDFGLVTSLKNDGKRTRSKGTLRYMSPEQISSQDYGKEVDLYALGLILAELLHVCDTAFETSKFFTDLRDGIISDIFDKKEKTLLQKLLSKKPEDRPNTSEILRTLTVWKKSPEKNERHTC
